Results taken from patent US20140329761A1, “PREVENTION AND TREATMENT OF ACUTE INFLAMMATORY CONDITIONS” (The University of Queensland, priority 2011, published 2014).
Where no end group is shown, it is not given here. [ ]: non-standard residue; d: D form. Cha = N[C@@H](CC1CCCCC1)C(=O)O

Tests used:
C3aR [1] = target: T1, C3aR (Homo sapiens, UniProt Q16581); conditions: cited from earlier work
T1 sequence (Q16581 1-482): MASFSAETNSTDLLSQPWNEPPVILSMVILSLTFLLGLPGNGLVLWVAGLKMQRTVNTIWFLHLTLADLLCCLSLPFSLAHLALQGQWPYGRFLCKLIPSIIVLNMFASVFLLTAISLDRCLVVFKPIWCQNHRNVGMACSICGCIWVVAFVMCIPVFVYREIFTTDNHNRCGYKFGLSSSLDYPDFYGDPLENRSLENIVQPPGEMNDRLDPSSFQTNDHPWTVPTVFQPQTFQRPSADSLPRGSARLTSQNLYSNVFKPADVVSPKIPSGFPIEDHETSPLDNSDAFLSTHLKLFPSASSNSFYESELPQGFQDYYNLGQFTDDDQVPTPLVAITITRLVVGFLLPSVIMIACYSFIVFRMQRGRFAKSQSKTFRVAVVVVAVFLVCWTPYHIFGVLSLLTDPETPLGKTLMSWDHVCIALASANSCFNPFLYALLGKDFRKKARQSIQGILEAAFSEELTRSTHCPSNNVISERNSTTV

C3aR [2] = target: T2, C3aR (Mus musculus, UniProt O09047); assay: Mouse intestinal I/R injury: circulating neutrophils (white blood cell differentials); assay type: in vivo, mice; conditions: WT mice, I/R induced intestinal injury, 0.01 mg/kg i.v. 10 minutes prior to ischemia, compared with vehicle pre-treated WT mice
T2 construct: endogenous in cells; host or cells: live wild-type C57BL/6 mice (in vivo; receptor on neutrophils and other bone-marrow-derived cells)
T2 sequence (O09047 1-477): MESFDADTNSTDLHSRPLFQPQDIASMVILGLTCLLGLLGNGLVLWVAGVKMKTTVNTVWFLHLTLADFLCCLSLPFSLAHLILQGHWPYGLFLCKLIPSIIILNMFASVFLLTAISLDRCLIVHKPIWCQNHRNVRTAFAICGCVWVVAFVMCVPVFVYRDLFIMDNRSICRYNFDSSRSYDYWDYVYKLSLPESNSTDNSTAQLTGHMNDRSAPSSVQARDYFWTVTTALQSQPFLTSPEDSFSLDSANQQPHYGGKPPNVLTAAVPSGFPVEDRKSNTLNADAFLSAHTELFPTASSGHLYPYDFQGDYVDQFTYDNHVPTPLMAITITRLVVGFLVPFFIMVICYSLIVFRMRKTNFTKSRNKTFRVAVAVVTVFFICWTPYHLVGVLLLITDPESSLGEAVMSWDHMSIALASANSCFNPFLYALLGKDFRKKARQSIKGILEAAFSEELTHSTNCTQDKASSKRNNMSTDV
Procedure: (§1) Male C57BL/6 or C3aR knockout mice were fasted for around 12 hours before experimentation. Mice were anesthetized with 2% isoflurane and oxygen at 2 L/minute throughout the experiment. […] An immediate check of complete shut-off of the blood supply to the small intestine was confirmed visually (ischemia). The abdomen was then covered with moist gauze. After thirty minutes of the ischemia episode, the ligature was removed and restoration of blood supply to the intestine was confirmed visually (reperfusion). The midline laparotomy incision was then closed. Mice were administrated with saline (100 μL) intraperitoneally every hour to compensate for fluid loss. The same procedure was performed on sham-operated mice including a loop of ligature around their arteries; however the arteries were not occluded. After two and half hours of the reperfusion episode, mice were sacrificed, and tissues and blood were harvested. Their small intestines (0.5-1 cm pieces) were snap-frozen in liquid nitrogen and stored at −80° C. for later assays. […]
(§2) To determine white blood cell populations, cell differentials were employed using blood smears and The Kwik-Diff Staining System (Thermo Shandon). […] Samples were counted in triplicate, with a total 100 white blood cells per slide counted, and the number of neutrophils expressed as a percentage of total white blood cells.

C3aR [3] = assay: as above; assay type: in vivo, mice; conditions: C3aR-/- mice, gut ischemia/reperfusion, 0.01 mg/kg i.v. 10 minutes prior to ischemia
Procedure: as §1, §2

C3aR [4] = target: T2, C3aR; assay: Mouse intestinal I/R injury: myeloperoxidase (MPO) activity of small intestine; assay type: in vivo; conditions: WT mice, 0.01 mg/kg i.v. pre-treatment, compared with vehicle pre-treated WT mice
Procedure: (§3) Male C57BL/6 or C3aR knockout mice were fasted for around 12 hours before experimentation. Mice were anesthetized with 2% isoflurane and oxygen at 2 L/minute throughout the experiment. […] An immediate check of complete shut-off of the blood supply to the small intestine was confirmed visually (ischemia). The abdomen was then covered with moist gauze. After thirty minutes of the ischemia episode, the ligature was removed and restoration of blood supply to the intestine was confirmed visually (reperfusion). The midline laparotomy incision was then closed. Mice were administrated with saline (100 μL) intraperitoneally every hour to compensate for fluid loss. The same procedure was performed on sham-operated mice including a loop of ligature around their arteries; however the arteries were not occluded. After two and half hours of the reperfusion episode, mice were sacrificed, and tissues and blood were harvested. Their small intestines (0.5-1 cm pieces) were snap-frozen in liquid nitrogen and stored at −80° C. for later assays. […] The blood was centrifuge at 14,000 rpm for 15 min at 4° C., and the resulting plasma stored at −80° C. […]
Snap-frozen ileum (1 cm), excised at sacrifice, was briefly cleaned with ice-cold PBS and weighed. […] MPO activity was assayed spectrophotometrically at the absorbance 460 nm. […] The absorbance was measured using a Rainbow 96-well plate reader after 20 minutes.

C3aR [5] = target: T2, C3aR; assay: Mouse intestinal I/R injury: alkaline phosphatase (ALP) measurement; assay type: in vivo; conditions: WT mice, I/R induced intestinal injury, 0.01 mg/kg i.v. pre-treatment, compared with vehicle pre-treated WT mice
Procedure: as §1
Intestinal ALP concentrations were measured according to the manufacturer's instructions (ALP reagents; Thermo Scientific, USA). […] The absorbance at 405 was immediately measured in a kinetic manner for 10 minutes at 37° C. The results were calculated as follows: Activity in U/L=ΔAbs/min×Factor.

C3aR [6] = target: T2, C3aR; assay: Mouse intestinal I/R injury: histopathology of small intestine; assay type: in vivo; conditions: WT mice, 0.01 mg/kg i.v. pre-treatment, compared with vehicle pre-treated WT mice; scale 0-5
Procedure: as §1
At sacrifice, a section of ileum (0.5 cm) was removed and fixed in 4% paraformaldehyde in phosphate buffered saline (PBS) for at least 72 hours. […] Histological assessment was carried out in a blinded fashion using light microscopy at 40× magnification, and scored for severity on a scale of 0-5. […]

C3aR [7] = target: T2, C3aR; assay: Mouse intestinal I/R injury: plasma cytokines (Cytometric Bead Array); assay type: in vivo; conditions: WT ischemia/reperfusion mice, 2.5 hours after ischemia
Procedure: as §3
Cytokines were measured using a Cytometric Bead Array from Becton Dickinson (flow cytometry that allows for the quantification of multiple cytokines simultaneously), using plasma isolated from mice at termination.

C3aR [8] = target: T2, C3aR; assay: Mouse spinal cord injury (SCI): circulating white blood cell populations and total WBC counts; assay type: in vivo; conditions: SCI mice, 4 doses of 1 mg/kg s.c. every 6 hours, 24 hours post-injury
Procedure: Experimental mice were anaesthetized using Zoletil (50 mg/kg) and xylazine (10 mg/kg). Next, a dorsal laminectomy was performed on the 9th thoracic vertebra to expose the underlying spinal cord. Mice were then subjected to a force-controlled, moderate-severe (70 kdyne) contusion injury of the spinal cord using the Infinite Horizon impactor device (Ghasemlou et al., 2005). Post-operatively, mice were given antibiotics for 5 days (Gentamycin; 1 mg/kg) as well as a single dose of Hartmann's solution (1 ml) to prevent dehydration and to compensate for loss of bodily fluids. Bladders of spinal cord-injured mice were voided manually twice daily. […]
Blood samples were collected from experimental animals either via retro-orbital eye bleeds or heart punctures at the time of sacrifice. […] Next, the number of white blood cells per set sample volume was determined using the Countess automated cell counter (Invitrogen) as per manufacturer's instructions. […]
These experiments were performed to test whether C3aR can be used as a therapeutic target to improve the outcome from neurotraumatic events (neuronal death and axonal degeneration at sites of SCI are inevitably linked to neuroinflammation). […] The effect of EP67 treatment on circulating white blood cell populations after SCI relative to saline-treated controls was assessed via flow cytometry and total WBC counts as detailed above.

FLTChaAR (FLT[Cha]AR)
functional antagonism at C3aR (C3aR [1]; literature (Scully et al. 2010), human C3aR): functional antagonist of both C3a and the short peptide agonist FWTLAR

WWGKKYRASKLGLAR (A synthetic EP141)
percentage of circulating neutrophils (C3aR [2]): significantly (P<0.02) lower
effect on circulating neutrophils (neutrophil mobilization) in C3aR knockout mice (C3aR [3]): inactive
I/R induced MPO activity of the small intestine (C3aR [4]): significantly (P<0.05) lower
plasma ALP levels (C3aR [5]): significantly (P<0.02) reduced
I/R induced intestinal injury (histopathological scores of the small intestine) (C3aR [6]): significantly reduced
IL-6 levels in plasma (C3aR [7]): no significant change
C3aR agonist activity (C3aR [1]; literature (Ember et al. 1991; Scully et al. 2010; Denonne et al. 2007)): highly potent and selective C3aR agonist

YSFKDMP(MeL)aR [EP67]
reduction in the blood granulocyte number (C3aR [8]; compared to vehicle-treated control mice with SCI): 30%
total WBC count (C3aR [8]; relative to vehicle-treated controls, p=0.07, data not shown): trend towards a decrease
